In US20210238276A1 (INTEGRAL MOLECULAR, published 2021):

T1: hsGLUT4 R265A (human, UniProt P14672 1-509)
T1 sequence: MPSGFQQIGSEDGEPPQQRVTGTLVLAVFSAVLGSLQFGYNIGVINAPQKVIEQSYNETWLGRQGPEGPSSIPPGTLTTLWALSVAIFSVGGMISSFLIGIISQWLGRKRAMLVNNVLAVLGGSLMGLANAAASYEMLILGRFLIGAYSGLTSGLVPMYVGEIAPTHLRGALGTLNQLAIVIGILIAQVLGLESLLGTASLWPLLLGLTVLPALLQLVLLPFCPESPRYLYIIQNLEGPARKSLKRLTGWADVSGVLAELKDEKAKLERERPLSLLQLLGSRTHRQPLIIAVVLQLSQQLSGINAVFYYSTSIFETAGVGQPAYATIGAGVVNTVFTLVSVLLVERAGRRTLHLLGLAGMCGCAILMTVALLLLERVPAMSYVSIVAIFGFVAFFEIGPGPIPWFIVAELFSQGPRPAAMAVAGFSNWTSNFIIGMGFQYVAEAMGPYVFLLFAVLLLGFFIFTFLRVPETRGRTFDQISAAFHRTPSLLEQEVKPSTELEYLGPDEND

T2: hsGLUT4 L296A (human, UniProt P14672 1-509)
T2 sequence: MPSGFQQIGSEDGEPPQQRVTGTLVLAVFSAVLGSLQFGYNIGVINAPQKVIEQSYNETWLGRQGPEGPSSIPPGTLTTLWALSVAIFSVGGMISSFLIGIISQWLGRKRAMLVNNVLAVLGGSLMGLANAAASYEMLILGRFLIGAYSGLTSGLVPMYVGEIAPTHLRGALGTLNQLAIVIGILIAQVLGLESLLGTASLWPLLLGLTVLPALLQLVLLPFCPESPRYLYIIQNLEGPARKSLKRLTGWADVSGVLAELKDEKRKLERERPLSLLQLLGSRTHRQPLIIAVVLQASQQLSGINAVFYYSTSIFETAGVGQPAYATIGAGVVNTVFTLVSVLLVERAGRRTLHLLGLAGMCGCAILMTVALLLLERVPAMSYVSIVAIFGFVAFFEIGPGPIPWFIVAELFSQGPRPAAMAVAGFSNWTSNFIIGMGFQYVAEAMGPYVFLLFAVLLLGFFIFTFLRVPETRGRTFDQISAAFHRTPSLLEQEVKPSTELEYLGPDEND

T3: hsGLUT4 F307A (human, UniProt P14672 1-509)
T3 sequence: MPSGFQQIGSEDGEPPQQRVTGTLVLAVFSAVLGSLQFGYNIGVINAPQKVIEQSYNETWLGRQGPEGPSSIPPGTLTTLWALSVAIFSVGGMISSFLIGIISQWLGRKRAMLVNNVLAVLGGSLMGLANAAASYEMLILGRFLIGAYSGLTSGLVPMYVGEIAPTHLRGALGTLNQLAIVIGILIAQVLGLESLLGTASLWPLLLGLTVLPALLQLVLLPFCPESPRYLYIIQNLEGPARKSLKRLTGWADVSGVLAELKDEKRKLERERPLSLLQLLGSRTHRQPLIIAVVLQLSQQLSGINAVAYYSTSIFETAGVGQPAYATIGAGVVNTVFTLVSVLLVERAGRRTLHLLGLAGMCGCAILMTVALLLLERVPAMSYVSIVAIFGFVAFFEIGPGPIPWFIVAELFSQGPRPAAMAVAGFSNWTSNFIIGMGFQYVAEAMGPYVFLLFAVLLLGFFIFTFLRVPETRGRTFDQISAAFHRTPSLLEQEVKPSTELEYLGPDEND

T4: hsGLUT4 G504A (human, UniProt P14672 1-509)
T4 sequence: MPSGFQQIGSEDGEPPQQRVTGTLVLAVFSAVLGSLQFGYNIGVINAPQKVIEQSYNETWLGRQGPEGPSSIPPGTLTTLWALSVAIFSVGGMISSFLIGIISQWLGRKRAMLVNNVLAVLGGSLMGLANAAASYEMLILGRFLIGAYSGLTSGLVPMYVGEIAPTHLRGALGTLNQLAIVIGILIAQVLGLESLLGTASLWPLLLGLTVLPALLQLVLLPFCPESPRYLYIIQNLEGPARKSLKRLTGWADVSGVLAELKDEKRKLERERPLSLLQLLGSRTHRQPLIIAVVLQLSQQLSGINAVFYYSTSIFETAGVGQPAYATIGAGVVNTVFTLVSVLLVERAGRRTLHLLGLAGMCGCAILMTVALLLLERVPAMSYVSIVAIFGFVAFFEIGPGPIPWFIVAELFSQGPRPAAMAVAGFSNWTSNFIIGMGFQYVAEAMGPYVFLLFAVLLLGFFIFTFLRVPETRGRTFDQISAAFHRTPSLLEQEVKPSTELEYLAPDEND


Assays:
Experiment in all cases: flow cytometry, alanine-scan library in HEK-293T
[1] = target: T1, hsGLUT4 R265A
Outline: (§1)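 HEK-293T cells expressing individual GLUT4 alanine mutants were stained 48 h post-transfection with anti-GLUT4 scFv MAbs (2 μg/ml), then biotinylated secondary and streptavidin-PerCP, and read by high-throughput flow cytometry. Where used, cytochalasin B (10 uM final) was given for 30 min before and during primary antibody staining.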

[2] = target: T2, hsGLUT4 L296A
Outline: as §1

[3] = target: T3, hsGLUT4 F307A
Outline: as §1

[4] = target: T4, hsGLUT4 G504A
Outline: as §1

Molecule | % of binding to wild type GLUT4 [1] [%] | % of binding to wild type GLUT4 [2] [%] | % of binding to wild type GLUT4 [3] [%] | % of binding to wild type GLUT4 [4] [%]
1F8 (antibody) | 101 | 105 | 84 | 120
AB111 (Fc fusion, Bivalent scFv-Fc; also called MAb AB111; not shown: Fc fragment of human IgG1, cloned in frame with the scFv) scFv: ALTQPSSVSANPGETVKITCSGSGSWYGWFQQKSPGSAPVTVIYSNDKRPSDIPSRFSGSKSGSTSTLTITGVQVEDEAVYYCGNWDIFGAGTTLTVLGQSSRSSGGGGSSGGGGSAVTLDESGGGLQTPGGALSLVCKASGFTFSSHGMGWVRQAPGKGLEWVASISTGRYTFYAPAVKGRATISRDNGQSTVRLQLNNLRAEDTATYYCTKCAGLNGCGGGEIDAWGHGTEVIVSS | 143 | 144 | 108 | 172
AB101 (scFv, Chicken-derived clone used as a control; the four lead clones were tested as scFv-human IgG1 Fc; also called MAb AB101) scFv: ALTQPSSVSANPGETVKITCSGSSNSYGWYQQKSPGSAPVTVIYYNDKRPSDIPSRFSGSKSDSTHTLTITGVRAEDEAVYFCGSYDSTYVGIFGAGTTLTVLGQSSRSSGGGGSSGGGGSAVTLDESGGGLQTPGGTLSLVCKASGFTFSSNAMGWVRQAPGKGLEWVAGISSDGRYTKYGSAVKGRATISRDNGQSTVRLQLNNLRAEDTGTYFCAKAFGNNYRRIYAGQIDAWGHGTEVIVSS | 91 | 90 | 82 | 8
AB108 (Fc fusion, Bivalent scFv-Fc; also called MAb AB108; not shown: Fc fragment of human IgG1, cloned in frame with the scFv) scFv: ALTQPSSVSANLGGTVKITCSGSSGSYGWYQQKAPGSAPVTLIYRNDKRPSDIPSRFSGSESGSTGTLTITGVQAEDEAVYFCGGYDSSAGYAAFGAGTTLTVLGQSSRSSGGGGSSGGGGSAVTLDESGGGLQTPGGALSLVCKASGFTFSSHGMGWVRQAPGKGLEWVGSISTGRYTFYAPAVKGRATISRDNGQSTLRLQLNNLRAEDTGTYYCTKCAGLNGCGGGEIDAWGHGTEVIVSS | 111 | 72 | 74 | 141
